These results are taken from article PMC10350107.

The target of data set [1] is human MCM8–9 complex, wild type (FLAG-MCM8 with MBP-MCM9, co-expressed) (human) (UniProt Q9UJA3).
Data set [2] concerns MCM8 (FLAG-MCM8);MCM9 (MBP-MCM9) (human;human). Nature of the data set: EMSA. The settings on record: EMSA: 25 mM Tris acetate pH 7.5, 3 mM EDTA (or 4 mM ATP + 1 mM Mg acetate), 1 mM DTT, 0.1 mg/ml BSA, 1 nM DNA (100 ng for plasmid-length DNA), 15 min on ice …. For orientation: In EMSA bound probe runs differently from free probe, usually more slowly.

Chain of human MCM8–9 complex, wild type (FLAG-MCM8 with MBP-MCM9, co-expressed) (human) (Q9UJA3 whole entry, chain 1 of 2): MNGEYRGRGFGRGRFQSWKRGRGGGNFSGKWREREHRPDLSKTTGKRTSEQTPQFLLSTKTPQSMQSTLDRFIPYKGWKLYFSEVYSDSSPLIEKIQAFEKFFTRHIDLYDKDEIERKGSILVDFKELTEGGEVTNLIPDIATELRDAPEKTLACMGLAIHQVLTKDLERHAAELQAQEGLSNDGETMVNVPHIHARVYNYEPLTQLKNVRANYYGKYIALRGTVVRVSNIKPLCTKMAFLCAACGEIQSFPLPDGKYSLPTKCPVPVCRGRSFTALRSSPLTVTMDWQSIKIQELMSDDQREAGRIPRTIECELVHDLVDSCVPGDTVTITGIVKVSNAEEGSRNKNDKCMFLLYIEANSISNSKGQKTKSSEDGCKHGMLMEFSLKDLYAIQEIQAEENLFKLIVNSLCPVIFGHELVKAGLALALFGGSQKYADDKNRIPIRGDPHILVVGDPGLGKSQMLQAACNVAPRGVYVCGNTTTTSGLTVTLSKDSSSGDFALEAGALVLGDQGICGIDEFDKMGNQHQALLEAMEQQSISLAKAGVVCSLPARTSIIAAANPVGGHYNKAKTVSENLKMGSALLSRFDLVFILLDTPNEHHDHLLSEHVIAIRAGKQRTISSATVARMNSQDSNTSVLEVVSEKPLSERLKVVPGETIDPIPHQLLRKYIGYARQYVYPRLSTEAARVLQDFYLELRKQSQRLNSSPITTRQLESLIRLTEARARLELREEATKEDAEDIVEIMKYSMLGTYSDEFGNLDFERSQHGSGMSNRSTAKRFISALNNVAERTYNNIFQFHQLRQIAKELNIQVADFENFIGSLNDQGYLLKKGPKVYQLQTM
Chain of human MCM8–9 complex, wild type (FLAG-MCM8 with MBP-MCM9, co-expressed) (human) (Q9NXL9 whole entry, chain 2 of 2, further chain): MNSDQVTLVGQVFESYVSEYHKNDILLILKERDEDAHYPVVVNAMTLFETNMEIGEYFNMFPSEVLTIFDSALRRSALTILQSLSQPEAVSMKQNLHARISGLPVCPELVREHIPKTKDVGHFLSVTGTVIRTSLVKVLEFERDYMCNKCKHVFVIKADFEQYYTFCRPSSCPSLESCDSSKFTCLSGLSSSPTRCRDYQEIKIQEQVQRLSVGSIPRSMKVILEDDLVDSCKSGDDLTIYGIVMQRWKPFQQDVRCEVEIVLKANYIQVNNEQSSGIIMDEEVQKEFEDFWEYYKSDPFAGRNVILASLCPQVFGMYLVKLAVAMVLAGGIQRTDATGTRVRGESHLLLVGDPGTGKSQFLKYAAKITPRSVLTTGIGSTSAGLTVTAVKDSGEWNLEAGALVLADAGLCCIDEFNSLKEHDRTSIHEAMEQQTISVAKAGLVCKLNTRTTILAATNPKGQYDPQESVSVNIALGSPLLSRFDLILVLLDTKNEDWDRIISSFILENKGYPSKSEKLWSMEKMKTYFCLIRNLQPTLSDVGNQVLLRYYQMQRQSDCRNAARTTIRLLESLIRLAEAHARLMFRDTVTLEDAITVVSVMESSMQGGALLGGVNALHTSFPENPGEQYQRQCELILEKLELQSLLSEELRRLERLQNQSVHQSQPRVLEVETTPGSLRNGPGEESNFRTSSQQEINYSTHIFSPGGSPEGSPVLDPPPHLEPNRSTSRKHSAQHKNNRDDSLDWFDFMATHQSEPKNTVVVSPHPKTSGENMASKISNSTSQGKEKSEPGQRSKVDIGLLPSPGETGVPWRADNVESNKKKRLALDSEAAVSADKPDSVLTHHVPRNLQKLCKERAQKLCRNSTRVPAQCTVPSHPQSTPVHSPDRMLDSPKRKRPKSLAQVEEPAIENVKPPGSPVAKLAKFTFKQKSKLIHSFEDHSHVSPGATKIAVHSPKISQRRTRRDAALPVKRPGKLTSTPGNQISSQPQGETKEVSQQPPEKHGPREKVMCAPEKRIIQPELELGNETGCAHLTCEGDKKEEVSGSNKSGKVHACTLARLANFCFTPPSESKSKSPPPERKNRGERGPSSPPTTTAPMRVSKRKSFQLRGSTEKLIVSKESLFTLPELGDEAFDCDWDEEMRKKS

The substance “HROB-FLAG, wild type human HROB (homologous recombination factor with OB-fold) (from UniProt Q8N3J3-4 1-646) (natural protein)” returned an ATP hydrolysis by MCM8–9 (200 nM) without or with HROB, DNA as co-factor; stimulation 1.5 to 2-fold in data set [1] of 1.5 to 2 fold.
As for Y-structure (PC1254/PC1253), in data set [2], the K half amounted to 55 nM.
On the same count and under the same terms, the same measure for “Holliday junction (PC1253/PC1254/PC1255/PC1256)”: 55 nM.
